From the DeepSol protein solubility set

Assay: soluble on expression in E. coli; label from the status in PepcDB or PDB records

For “MGSDKIHHHHHHMMKMQVVIASGKGGVGKSSITASLLYLLKDEYKLIAVDADAEAPNLGLLLGVTEWEIEREHIGAKIARINPESCIRCGLCQMRCPYECIYVDEEGNYVVNELTCEGCNVCGLVCPVPGTITLEEVRSGIIRKATTKYGFPIISAQLDVGKPESGKLVTEEKEWASKIMKEEGLEHMIVDSAAGIGCQVIASVGGADVAILIAEPTPASLSDVQRVYKVVQHFREPAYLIINKADINPGFTKLREWAESEGIPILGEVPYDSSIPRSMSMLKPFVEAFPDSKASEAIRGIAERIKEEILKG”, which “soluble on expression in E. coli” value is on record?
The value was “not soluble”.

Which “soluble on expression in E. coli” value does the source give for “MGSDKIHHHHHHMMNTLAHPPGTDDATLSGMLSHFRLLEPVFDAMPDVVFFVKDAEARYALVNRTLASRCGFKEKTALLGRTAEDVFPRRFGRIYTAQDKAIINVGNQLIDQLELHLYPGRQPGWCLTCKQPLRNAAGKVVGLAGISRDLKADESSHPAYSRLATVVQSIQENYVQPLNLKQLAAMADMSVAQLERYFHKVFHLTPRQVLLKARLDAATALLVSHDKVTDVAALCGYTDHSAFTRQFKATVGVTPTEYRMLLHGTSRS” here?
Its value is “not soluble”.

For “MGSDKIHHHHHHMMTYRDAWFELALLTNGRSFPRHTHDEFVISANLSGMETVWLDGETFVATNDMVTTYNPNQLQGSDNAFDRWQCASLYVHPQAFEHYFHQTFLFSQGWNPSAQLASELKQLVTSDLDDSARQERIILLLAGLMEGQHRMLPQSQVKEAERITRIKEGLLNDLSEVPTLDQLAQQESLSVAHLVRSFNQAVGLPPLAWLMQRRMCKARELLRQGTAISQVAGDVGFADQAHFTKAFNRYNAMTPGQFRRINF”, which “soluble on expression in E. coli” value is on record?
Its value is “not soluble”.

Which “soluble on expression in E. coli” value does the source give for “MGSDKIHHHHHHMNAPRFAAPARRTKKLPPLRVGIGGPVGSGKTTLLEMLCKGMRERYDLVAITNDIYTKEDQRLLTIAGALPEARIMGVETGGCPHTAIREDASINLEAVERMLARFPDADIVFIESGGDNLAATFSPELSDLTIYVIDVAGGEKIPRKGGPGITKSDLLVINKTDLAPLVGANLEVMASDTRKMRGERPYVMCNLKALDGVADVIAFIENKGLLTV” here?
Its value is “not soluble”.

With “MGSDKIHHHHHHMNAQIKIINTANGYMALCQDTPEDITPAWFSVDFWREKSAVVGSSKGRYTTWFVAFEHSHWVLRHYWRGGMMEKFSKDAYFYTGLENTRAMGELRLLDALYREQFAVPKPIAANIVRDGLFYRADIIIERVDGAEDLVAKLTKGTMTQAQWHALGATIAQFHRRGVYHADLNAKNILWQPQQTDSAQERFYLIDFDRGELKTPNAKWQKANLDRLLRSFNKEQGKQPTLAFTPANWAALLEGYHAVVPKV” as the sequence, how does the “soluble on expression in E. coli” value read?
The value was “not soluble”.

With “MGSDKIHHHHHHMNDLLPFLAQVSLFKGIETEELPKMLNRLNARKVSYKKNDVILREGQSVHSVGIMLSGKVKVVKEDFKGNTNVMTFIEPGAMFAEAYACTQTANLPFTVLSVMETKILWIDYRKIISTCTSACESHEKLIENMMKALASKSILLNQKIEHISKRTTQEKLLTYLFDQSKKSGSNEFEIPFSRQELADYLCVDRSAMSNELCKLQREGVLNFHLNHFKLSKSSSEAQL” as the sequence, how does the “soluble on expression in E. coli” value read?
The value was “not soluble”.

For “MGSDKIHHHHHHMNEQFERLMVRVESLMARIESVLPQPLSAPDWTASVAYRYRKRGSGHGSLEPVRHLGAMRLTDLKEIDGQKDRIRRNTEQFVSGKPANNVLLTGSRGTGKSSLIKACLNEYSARGLRLIEVDKADLTDLPDIVDVVSGLPEKFIVFCDDLSFEEGEPGYKALKSILDGSIAAATPNVLIYATSNRRHLLPEYMMENLTYTHTEDGEVHPGEVVEEKISLSERFGLWVSFYPFSQDEYLTIVAQWLSSFGVNAEAISAARPASLVWALERGSRSGRVAYQFARDYAGQHAGTVQ”, which “soluble on expression in E. coli” value is on record?
The value was “not soluble”.

For “MGSDKIHHHHHHMNFLKKEPFKIFSMIYLLLDTITNRAGTERAVINLANNLHANGHRVSLVSVCTKEGEPSFQVEKGIEVHHLGIRLYGNALARKTVYFKAYRRIKALYKKREPVLLIGTNIFINTILSQISNRGRIFTIGCEHISYDIARPITKRIRGFLYSGLDAVVALTKRDQQSFEAILRGRSKAYVIPNQVSFTTVQRDATTHKQMLAIGRLTYQKGFEFMIEDASRVLRERPDWKLIIVGDGENESMLRKEIASRNMESQIEIHPSTPEIRKYYESSAIYLMTSRFEGLPMVLLEAEAYALPIISYDCPTGPRELIENGRNGFLVPMEAHEDFADKLRLLMDDETLRKKMGQESELMVKSYSPANIYECWKKLFVEIGYMN”, which “soluble on expression in E. coli” value is on record?
The value was “not soluble”.

Which “soluble on expression in E. coli” value does the source give for “MGSDKIHHHHHHMNFPIDEKLIREKQNELHIKDLGMASIRDLVALVTNLEKATGTKFCRMEMGVPGLPAPQIGIETEIQKLREGVASIYPNLDGLPELKQEASRFAKLFVNIDIPARACVPTVGSMQGCFVSFLVANRTHKNREYGTLFIDPGFNLNKLQCRILGQKFESFDLFEYRGEKLREKLESYLQTGQFCSIIYSNPNNPTWQCMTDEELRIIGELATKHDVIVIEDLAYFGMDFRKDYSHPGEPLYQPSVANYTDNYILALSSSKAFSYAGQRIGVLMISGKLYEREYPDLEESFGRLRFGEALSSSALYALSSGATHSAQWGMAAMLKACNDGEYNFRDSVIEYGRKARIMKKMFLDNGFNIVYDKDGNEPLADGFYFTVGYKGMDSSKLIEKFVRYGMCAITLKTTGSKRNEAMRICTSLLPESQFPDLEKRLQMLNAEG” here?
Its value is “not soluble”.

With “MGSDKIHHHHHHMNIEKTRFCINRKIAPGLSIEAFFRLVKRLEFNKVELRNDMPSGSVTDDLNYNQVRNLAEKYGLEIVTINAVYPFNQLTEEVVKKTEGLLRDAQGVGARALVLCPLNDGTIVPPEVTVEAIKRLSDLFARYDIQGLVEPLGFRVSSLRSAVWAQQLIREAGSPFKVLLDTFHHHLYEEAEKEFASRIDISAIGLVHLSGVEDTRPTEALADEQRIMLSEKDVMQNYQQVQRLENMGYRGIYAFEPFSSQLASWSEAEIEEQINRSVSLLLQ” as the sequence, how does the “soluble on expression in E. coli” value read?
The value was “not soluble”.

With “MGSDKIHHHHHHMNILFVSDLGSLGGGETSLFNLINEFASDNKKYNINNFLMCKTEGKLVDKCRGINVPCKVFDFKAAFKSFKFREISKAIKVIKEFLYSNNIDVIQCNEWSSAVLFSIISKVSSKNCKIIWICHGQWYKFNLIKRVLVNSLINRIISVSESVQNNLIINKLNKRKLLKQNLGIDLDRFRLGNGDKLREELHIQKEDKVLGVIARFQPIKGQKLVIEAARDIVEAGYKNYKFLLVGDSIFNNPKDSMYKNEVIEMIKEYKLQKNVLILGERNDVPDILALLDALIVPSINESFGMVVVEAFAAGCPVISTPCDGPMEIIKNGYSGVIINERNSENLKDAITDLMKEETDLEMMKINSMKESKKYDISNIAQFYCKQYALLCK” as the sequence, how does the “soluble on expression in E. coli” value read?
The value was “not soluble”.

For “MGSDKIHHHHHHMNINISGKRVLVTASTEGIGRGIAEAFLREGCNVVISSRNKDKIEKAILEMRKIGPSVWGFPADLTDFKSLEELVGYALKIMNGIDILVVNSGNPPKEPSYFFENTMEDWEYATKLYLLSAIKLTNLVYQYMKAQRWGRIFFLSSWTIKEPQRIFSLADITRAPLIQMAKLLSKELGEYNVNVNVILMGSFETEGAKRSLKKYAEKVGQPLDVIWKREVISQIPIGRTGDIKNELGSLLVFLSSDYAGYINGTSILIDGGMSRAI”, which “soluble on expression in E. coli” value is on record?
Its value is “not soluble”.

For “MGSDKIHHHHHHMNINSETKYCQTCGIPLDIDYTNLKADQNEEYCDYCLKNGVKLYDFSMDYLIYLWGLFPEEYYKEVGIRHTSSELREIMSRRLPEIKRWKQKINTAHIQYELVIRVQEYINCHLFDDLDSEKLSQIVCISKYHFRRLFKAVCGDSLGNYIQRLRLEYIAFKLISTNVSVSEILSQINYQNKHTLSRAFKNYFNCSIPEFRKRHSNACSEGKNPIQIEPSIERVPHTRIAYLKLERTHHVSHSFSVLWKQVLQFSESYGLLSKGCKYVSLTLDYPFITLEEQSRFMVGVTLPQSFKIPKGFGVYEVPAGEYAIFRFKGLYHELNRVYRYIYLDWLPANDYSLREPFTFETYINTPEKTPVSELITDIYIPVKKKEI”, which “soluble on expression in E. coli” value is on record?
Its value is “not soluble”.

For “MGSDKIHHHHHHMNIQTFMLPSQKVSPELEILHADLQTEGQHPPILFLHGYTSGAWQFAQHWMPTLQANGWQSFALNLRGHGGSAGRETVTTARFLDYADDVARAIAYVRGQTDQTPILIGHSLGSVLARHYAAEHSVPGLGLLITIGMQGFMGWMMKRYPLQGMAGMMTGRPSAMFAKFGPQYDVMYAGHNKETVRGNVERLMAQPDSDKVFMDLSKLKLGLPAKSTPTFVMAGTRDPIASVESVEALGRSYAVEPVMLQDKAHDIVAGPDWNDGLQHLQAWLETAKF”, which “soluble on expression in E. coli” value is on record?
Its value is “not soluble”.
